The results in this text go back to doi:10.1101/2021.06.06.447285 (bioRxiv, 2021).

The data set deals with the molecule itself. The data set can be described thus: native gel or EMSA + other: dynamic light scattering + other: negative-stain TEM. In general terms: Mobility shift assays separate free from complexed probe on a gel.

B1: Encapsulin from Thermotoga maritima (natural protein)
chain: MEFLKRSFAPLTEKQWQEIDNRAREIFKTQLYGRKFVDVEGPYGWEYAAHPLGEVEVLSDENEVVKWGLRKSLPLIELRATFTLDLWELDNLERGKPNVDLSSLEETVRKVAEFEDEVIFRGCEKSGVKGLLSFEERKIECGSTPKDLLEAIVRALSIFSKDGIEGPYTLVINTDRWINFLKEEAGHYPLEKRVEECLRGGKIITTPRIEDALVVSERGGDFKLILGQDLSIGYEDREKDAVRLFITETFTFQVVNPEALILLKF
Consider B1, for which the binding result is listed as “binds”.
